Measurements taken from US20180142032A1 (Sanofi, published 2018).
Read-outs that look alike come from different tables or passages of the source.

Key:
LAMP1::histag [1] = molecular target: T1, LAMP1::histag (human, UniProt P11279 29-382); test: SPR (BIAcore 2000), mAb captured by anti-Fc, LAMP1 injected 1 to 256 nM
T1 construct: extracellular domain without signal peptide, C-terminal 6 His tag, made in HEK293 cells; also called recombinant human LAMP1; human LAMP1 (29-382)
T1 sequence: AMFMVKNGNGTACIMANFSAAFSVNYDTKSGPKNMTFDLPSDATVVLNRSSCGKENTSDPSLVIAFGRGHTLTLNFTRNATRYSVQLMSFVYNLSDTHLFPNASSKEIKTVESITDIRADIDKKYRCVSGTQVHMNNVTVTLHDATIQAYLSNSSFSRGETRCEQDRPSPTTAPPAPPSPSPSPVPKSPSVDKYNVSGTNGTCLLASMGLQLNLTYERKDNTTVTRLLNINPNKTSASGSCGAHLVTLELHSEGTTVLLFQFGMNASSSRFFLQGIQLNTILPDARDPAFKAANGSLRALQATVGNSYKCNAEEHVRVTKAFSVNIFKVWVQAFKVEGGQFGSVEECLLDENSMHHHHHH
Procedure: The binding kinetics of the murine, chimer or humanized anti-LAMP1 mAbs were determined by surface plasmon resonance assay using a BIAcore 2000 (BIAcore Inc., Uppsala, N.J.). […] A mouse anti-αhuman Fc IgG1 (BIAcore #BR-1008-39) and rabbit anti-αmurine Fc IgG1 (BIAcore #BR-1008-38) (50 μg/mL in […], pH5) were immobilized on the activated chips in all flow cells. The immobilization was carried out at a flow rate of 10 μL/min up to saturation. The chip was then blocked by injection of 70 μL of ethanolamine-HCl, pH 8.5, followed by one wash with 3 M MgCl₂ for anti-αhuman Fc IgG1 and one wash with 10 mM Glycine-HCl pH 1.7 for anti-αmurine Fc IgG1. To measure the binding of anti-LAMP1 mAbs to LAMP1, antibodies were used at 1-5 μg/mL in BIAcore running buffer (HBS-EP). […] Following completion of the injection phase, dissociation was monitored in a BIAcore running buffer at the same flow rate for 600 sec. […] Individual sensorgrams were analyzed using BIAevaluation software.

[2] = molecular target: T2, cynomolgus monkey LAMP1 at the cell surface (cynomolgus monkey, UniProt P11279 29-417 (human entry)); test: flow cytometry, HEK293 cynoLAMP1 clone 44
T2 construct: also called cynoLAMP1; cynomolgus LAMP1
T2 chain: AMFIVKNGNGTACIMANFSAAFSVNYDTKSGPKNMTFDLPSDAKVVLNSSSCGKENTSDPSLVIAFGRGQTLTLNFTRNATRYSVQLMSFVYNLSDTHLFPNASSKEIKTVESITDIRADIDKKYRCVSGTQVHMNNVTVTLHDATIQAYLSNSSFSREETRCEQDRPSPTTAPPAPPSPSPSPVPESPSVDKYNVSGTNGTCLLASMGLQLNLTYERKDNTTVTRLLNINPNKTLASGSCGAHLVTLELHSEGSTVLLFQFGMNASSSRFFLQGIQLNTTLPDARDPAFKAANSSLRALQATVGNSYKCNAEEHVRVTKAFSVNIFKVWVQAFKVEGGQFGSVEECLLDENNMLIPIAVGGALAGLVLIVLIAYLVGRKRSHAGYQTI

[3] = molecular target: T2, cynomolgus monkey LAMP1 at the cell …; test: flow cytometry
[4] = molecular target: T3, human LAMP1 at the cell surface (human, UniProt P11279 29-417); test: flow cytometry, HCT116 huLAMP1 clone 8
T3 construct: native on tumour cells (PDX, Colo205, SW480, LS174T) or from the cloned CDS NM_005561.3 in HEK293 and HCT116; signal peptide 1-28 left out; also called huLAMP1; full length human LAMP1
T3 sequence: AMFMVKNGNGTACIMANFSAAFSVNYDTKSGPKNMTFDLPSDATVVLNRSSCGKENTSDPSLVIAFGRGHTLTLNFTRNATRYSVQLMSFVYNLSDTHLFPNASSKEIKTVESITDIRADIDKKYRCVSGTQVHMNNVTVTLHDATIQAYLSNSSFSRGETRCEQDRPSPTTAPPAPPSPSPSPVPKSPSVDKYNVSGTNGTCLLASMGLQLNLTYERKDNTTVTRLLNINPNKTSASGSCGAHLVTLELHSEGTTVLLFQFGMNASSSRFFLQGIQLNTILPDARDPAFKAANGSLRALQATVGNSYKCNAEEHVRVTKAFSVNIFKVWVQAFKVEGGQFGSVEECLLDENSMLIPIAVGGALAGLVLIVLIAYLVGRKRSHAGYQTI
Procedure: HCT116 cells were infected by a lentiviral vector allowing stable integration of the human or the cynomolgus LAMP1 CDS in genomic DNA of cells. Individual clones with different densities of human or cynomolgus LAMP1 cell surface localization were derived from a pool of HCT116 infected cells. […] 100 μL/well of goat anti-human IgG conjugated with Alexa488 (Invitrogen; # A11013) was added for 1 h at 4° C. and washed two times with PBS 1% BSA. The antibody binding was evaluated after centrifugation and resuspension of cells in 100 μl fixing solution (paraformaldehyde at 4% in PBS). Samples were read using Galaxy® Flow Cytometry System (Partec). EC50 values were estimated using BIOST@T-SPEED software.

[5] = molecular target: T3, human LAMP1 at the cell surface; test: cell-based or functional assay
[6] = molecular target: T2, cynomolgus monkey LAMP1 at the cell …; test: flow cytometry, HEK293 cynoLAMP1 clone 44
LAMP1::histag [7] = molecular target: T1, LAMP1::histag; test: ELISA on secreted human LAMP1
[8] = molecular target: T3, human LAMP1 at the cell surface; test: cell-based or functional assay; remark: listed apart in the source

B1: chMAb2can (antibody, human IgG1, kappa, V domains shown)
VH: QVQLQQSAAELARPGASVKMSCKASGYTFTSYTMHWVKQRPGQGLEWIGYFNPSSGYPEYNQKFKDKTTLTADKSSNTAFIQLNSLTSEDSAVYYCSRGYYYGSRGYALDFWGQGTSVTVSS
VL: NIVLTQSPASLAVSLGQRATISCRASESVDINGNTFMHWYQQKPGQSPKLLIYAASNLESGVPARFSGSGSGTDFTFTIDPVEADDVATYYCQQNIEDPWTFGGGTKLEIKR
**Q.** B1 was tested. Which Kd (LAMP1::histag [1]) did it give?
**A.** 68.8 nM

B2: DM4-SPDB-chMAb2 (antibody, human IgG1, kappa, V domains shown)
VH: QVQLQQSAAELARPGASVKMSCKASGYTFTSYTMHWVKQRPGQGLEWIGYFNPSSGYPEYNQKFKDKTTLTADKSSNTAFIQLNSLTSEDSAVYYCSRGYYYGSRGYALDFWGQGTSVTVSS
VL: NIVLTQSPASLAVSLGQRATISCRASESVDINGNTFMHWYQQKPGQSPKLLIYAASNLESGVPARFSGSGSGTDFTFTIDPVEADDVATYYCQQNIEDPWTFGGGTKLEIKR
modifications: DM4 linked through SPDB, average DAR 3.7 per antibody; sites not stated
notes: also called DM4-SPDB-chMAb2can
**Q.** What does the source list for B2?
**A.** EC50 [2]: 12.8 nM; Ratio of EC50s (cynoLAMP1 against huLAMP1) [3]: 2.3; EC50 [4]: 5.5 nM; cytotoxicity IC50, HCT116 huLAMP1 clone 8 [5]: 0.07 nM

B3: DM4-SPDB-huMAb1_2 (antibody, human IgG1, kappa, V domains shown)
VH: QVQLVQSGAELVKPGASVKMSCKASGYIFTNYNIHWVKKSPGQGLEWIGAIYPGNGDAPYSQKFQDRATLTADTSSSTTYMELSSLTSEDSAVYYCVRANWDVAFAYWGQGTLVSVSS
VL: DIQMTQSPPSLSASVGGKVTITCKASQDIDRYMAWYQDKPGKGPKLLIHDTSTLQPGIPSRFSGSGSGRDYSFSISNLEPEDIATYYCLQYDNLWTFGGGTKLEIKR
modifications: DM4 linked through SPDB, average DAR 4.05 per antibody; sites not stated
**Q.** Which “cytotoxicity IC50, HCT116 huLAMP1 clone 8” value [5] does the source give for B3 here?
**A.** 0.07 nM

B4: huMAb1_3 (antibody, human IgG1, kappa, V domains shown)
VH: QVQLVQSGAELVKPGASVKMSCKASGYIFTNYNIHWVRQAPGQGLEWIGAIYPGNGDAPYAQKFQGRATLTADTSSSTTYMELSSLTSEDTAVYYCVRANWDVAFAYWGQGTLVTVSS
VL: DIQMTQSPSSLSASVGGKVTITCKASQDIDRYMAWYQQKPGKGPKLLIHDTSTLQPGVPSRFSGSGSGRDYSLTISSLEPEDIATYYCLQYDNLWTFGGGTKLEIKR
notes: humanized, VH3-huIgG1 and VL3-huCk
**Q.** For B4, which EC50 [4] is on record?
**A.** 10.3 nM

**Q.** And the EC50 [6]?
**A.** 17.7 nM

B5: DM4-SPDB-huMAb1_3 (antibody, human IgG1, kappa, V domains shown)
VH: QVQLVQSGAELVKPGASVKMSCKASGYIFTNYNIHWVRQAPGQGLEWIGAIYPGNGDAPYAQKFQGRATLTADTSSSTTYMELSSLTSEDTAVYYCVRANWDVAFAYWGQGTLVTVSS
VL: DIQMTQSPSSLSASVGGKVTITCKASQDIDRYMAWYQQKPGKGPKLLIHDTSTLQPGVPSRFSGSGSGRDYSLTISSLEPEDIATYYCLQYDNLWTFGGGTKLEIKR
modifications: DM4 linked through SPDB, average DAR 3.5 per antibody; sites not stated
**Q.** How did the “cytotoxicity IC50, HCT116 huLAMP1 clone 8” value [5] turn out when B5 was run?
**A.** 0.12 nM

B6: huMAb1_negB (antibody, human IgG1, kappa)
heavy: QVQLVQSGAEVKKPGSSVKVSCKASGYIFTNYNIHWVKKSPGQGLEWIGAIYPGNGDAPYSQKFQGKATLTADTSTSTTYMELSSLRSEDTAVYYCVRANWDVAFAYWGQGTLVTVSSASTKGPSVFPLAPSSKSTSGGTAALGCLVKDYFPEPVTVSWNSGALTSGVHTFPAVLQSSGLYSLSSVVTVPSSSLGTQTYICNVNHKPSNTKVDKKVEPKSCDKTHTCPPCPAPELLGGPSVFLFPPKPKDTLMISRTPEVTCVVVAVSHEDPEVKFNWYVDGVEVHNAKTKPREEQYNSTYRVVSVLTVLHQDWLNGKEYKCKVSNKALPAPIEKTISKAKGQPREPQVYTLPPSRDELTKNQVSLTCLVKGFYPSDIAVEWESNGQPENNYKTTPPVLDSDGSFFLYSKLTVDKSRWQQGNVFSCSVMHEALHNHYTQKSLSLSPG
light: DIQMTQSPSSLSASVGDRVTITCKASQDIDRYMAWYQDKPGKAPRLLIHDTSTLQSGVPSRFSGSGSGRDYTLTISNLEPEDFATYYCLQYDNLWTFGGGTKVEIKRTVAAPSVFIFPPSDEQLKSGTASVVCLLNNFYPREAKVQWKVDNALQSGNSQESVTEQDSKDSTYSLSSTLTLSKADYEKHKVYACEVTHQGLSSPVTKSFNRGEC
notes: LC1 and HCnegB (VH1-huIgG1_266A, D265A by Kabat)
**Q.** With B6 as the binder, how does the EC50 (LAMP1::histag [7]) read?
**A.** 0.07 nM

B7: DM4-SPDB-chMAb1 (antibody, human IgG1, kappa)
heavy: not shown
light: DIQMTQSPPSLSASLGGKVTITCKASQDIDRYMAWYQDKPGKGPRLLIHDTSTLQPGIPSRFSGSGSGRDYSFSISNLEPEDIATYYCLQYDNLWTFGGGTKLEIKRTVAAPSVFIFPPSDEQLKSGTASVVCLLNNFYPREAKVQWKVDNALQSGNSQESVTEQDSKDSTYSLSSTLTLSKADYEKHKVYACEVTHQGLSSPVTKSFNRGEC
modifications: DM4 linked through SPDB, average DAR 4.5 per antibody; sites not stated
notes: antibody drug conjugate of chMAb1; also called chMAb1-SPDB-DM4
**Q.** Which EC50 [2] does the source give for B7 here?
**A.** 6.6 nM

**Q.** And the “Cytotoxic activity IC50 (Cell Titer-Glo), HCT116-LAMP1 clone 5, antigen density 451 000” value [8]?
**A.** 0.2 nM

**Q.** What about the “Cytotoxic activity IC50 (Cell Titer-Glo), HCT116-LAMP1 clone 8, antigen density 160 000” value [8] of the same binder?
**A.** 0.1 nM

**Q.** What about the “Ratio of EC50s (cynoLAMP1 against huLAMP1)” value [3] of the same binder?
**A.** 1

**Q.** What about the EC50 [4] of the same binder?
**A.** 6.6 nM

B8: huMAb1_2 (antibody, human IgG1, kappa, V domains shown)
VH: QVQLVQSGAELVKPGASVKMSCKASGYIFTNYNIHWVKKSPGQGLEWIGAIYPGNGDAPYSQKFQDRATLTADTSSSTTYMELSSLTSEDSAVYYCVRANWDVAFAYWGQGTLVSVSS
VL: DIQMTQSPPSLSASVGGKVTITCKASQDIDRYMAWYQDKPGKGPKLLIHDTSTLQPGIPSRFSGSGSGRDYSFSISNLEPEDIATYYCLQYDNLWTFGGGTKLEIKR
notes: humanized, VH2-huIgG1 and VL2-huCk
**Q.** For B8, which EC50 [4] is on record?
**A.** 6.6 nM

**Q.** And the EC50 [6]?
**A.** 13.3 nM

B9: DM4-SPDB-chMAb3 (antibody, human IgG1, kappa, V domains shown)
VH: QIQLVQSGPELKKPGETVKISCKASGYIFTNYGMNWVKQAPGKGLKWMGWINTYTGESRYADDFKGRFALSLETSASTAYLQINNLENEDMATYFCAREDYYGNSPWFFDVWGAGTTVTVSS
VL: DIQMTQTTSSLSASLGDRVTISCRASQGINKYLNWYQQKPDGTVKLLIYYTSTLHSGVPSRFSGSGSGTDYSLTINNLEPEDIATYYCQQYTRLPFTFGSGTKLEIKR
modifications: DM4 linked through SPDB, average DAR 3.7 per antibody; sites not stated
**Q.** Which results are given for B9?
**A.** EC50 [2]: 6.1 nM; Ratio of EC50s (cynoLAMP1 against huLAMP1) [3]: 0.7; EC50 [4]: 9.1 nM; cytotoxicity IC50, HCT116 huLAMP1 clone 8 [5]: 0.06 nM

B10: chMAb3_VLR24-R93 (antibody, human IgG1, kappa, V domains shown)
VH: QIQLVQSGPELKKPGETVKISCKASGYIFTNYGMNWVKQAPGKGLKWMGWINTYTGESRYADDFKGRFALSLETSASTAYLQINNLENEDMATYFCAREDYYGNSPWFFDVWGAGTTVTVSS
VL: DIQMTQTTSSLSASLGDRVTISCRASQGINKYLNWYQQKPDGTVKLLIYYTSTLHSGVPSRFSGSGSGTDYSLTINNLEPEDIATYYCQQYTRLPFTFGSGTKLEIKR
notes: chimeric, human IgG1, Ckappa; VL with N24R and K93R
**Q.** Which Kd (LAMP1::histag [1]) does the source give for B10 here?
**A.** 7.2 nM
